Experimental data as given in paper PMC3175489.

Tests used:
SOX2 [1] = biological target: T1, SOX2 (human, UniProt P48431 1-317); test: Ni-NTA filter microplate fluorescent DNA binding
NANOG = NANOG (human, UniProt Q9H9S0 1-305); test: Ni-NTA filter microplate fluorescent DNA binding
SOX2 [2] = biological target: T1, SOX2; test: competition

T1 sequence (P48431 whole entry): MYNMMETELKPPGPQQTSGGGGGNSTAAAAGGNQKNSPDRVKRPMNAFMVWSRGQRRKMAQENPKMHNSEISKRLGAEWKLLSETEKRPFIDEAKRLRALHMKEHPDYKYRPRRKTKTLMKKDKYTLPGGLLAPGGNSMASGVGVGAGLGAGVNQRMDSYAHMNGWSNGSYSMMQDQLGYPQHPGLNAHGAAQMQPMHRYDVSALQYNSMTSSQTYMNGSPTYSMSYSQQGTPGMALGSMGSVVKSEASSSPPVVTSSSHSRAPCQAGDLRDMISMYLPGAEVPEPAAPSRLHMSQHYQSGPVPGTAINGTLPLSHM
Chain of NANOG (Q9H9S0 whole entry): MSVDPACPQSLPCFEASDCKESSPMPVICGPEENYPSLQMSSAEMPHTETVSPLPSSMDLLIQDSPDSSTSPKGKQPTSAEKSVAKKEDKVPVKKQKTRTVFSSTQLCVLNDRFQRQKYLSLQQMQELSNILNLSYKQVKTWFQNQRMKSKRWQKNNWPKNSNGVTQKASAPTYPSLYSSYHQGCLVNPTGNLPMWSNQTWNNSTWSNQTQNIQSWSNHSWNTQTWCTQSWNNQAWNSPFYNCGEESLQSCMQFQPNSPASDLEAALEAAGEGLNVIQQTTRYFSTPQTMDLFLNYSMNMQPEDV

B1: SOX2 cognate probe (CR4 POU5F1) (dsDNA)
DNA 1: GCAGAGGACAAAGGTGCCGTG
DNA 2: CACGGCACCTTTGTCCTCTGC
- Kd (SOX2 [1]): 54.2 ± 9 nM

B2: NANOG cognate probe (Tcf3 enhancer) (dsDNA)
DNA 1: ACCTGTTAATGGGAGCGC
DNA 2: GCGCTCCCATTAACAGGT
- Kd (NANOG): 44 ± 6 nM

B3: nonsense probe (dsDNA)
DNA 1: GCCCGATTACTCTGTCCT
DNA 2: AGGACAGAGTAATCGGGC
- binding result (SOX2 [2]): no binding
